Laboratory results published in patent US20110311522A1.

Assays:
[1] = biological target: hemagglutinin (HA) of H5N1 virus strain VTM4.1 (H5N1 avian influenza virus, strain VTM4.1); assay: cell-based or functional assay
[2] = biological target: hemagglutinin (HA) of H5N1 virus strain GD4.1 (H5N1 avian influenza virus, strain GD4.1); assay: cell-based or functional assay
[3] = biological target: hemagglutinin (HA) of H5N1 virus strain FJ1.5 (H5N1 avian influenza virus, strain FJ1.5); assay: cell-based or functional assay
[4] = biological target: hemagglutinin (HA) of H5N1 virus strain VTM1.1 (H5N1 avian influenza virus, strain VTM1.1); assay: cell-based or functional assay
[5] = biological target: hemagglutinin (HA) of H5N1 virus strain QH1.1 (H5N1 avian influenza virus, strain QH1.1); assay: cell-based or functional assay
[6] = biological target: hemagglutinin (HA) of H5N1 virus strain IDN3.1 (H5N1 avian influenza virus, strain IDN3.1); assay: cell-based or functional assay
[7] = biological target: hemagglutinin (HA) of H5N1 virus strain IDN8.1 (H5N1 avian influenza virus, strain IDN8.1); assay: cell-based or functional assay
[8] = biological target: H5 virus strain (fifteen strains of H5N1 viruses); assay: cell-based or functional assay
[9] = biological target: hemagglutinin (HA) of H5N1 virus strain GD3.1 (H5N1 avian influenza virus, strain GD3.1); assay: cell-based or functional assay
[10] = biological target: hemagglutinin (HA) of H5N1 virus strain IDN6.1 (H5N1 avian influenza virus, strain IDN6.1); assay: cell-based or functional assay
[11] = biological target: 14 strains of non-H5 viruses (H1~H13, Chicken NDV); assay: cell-based or functional assay
[12] = biological target: hemagglutinin (HA) of H5N1 virus strain IDN1.1 (H5N1 avian influenza virus, strain IDN1.1); assay: cell-based or functional assay
[13] = biological target: hemagglutinin (HA) of H5N1 virus strain YN2.1 (H5N1 avian influenza virus, strain YN2.1); assay: cell-based or functional assay
[14] = biological target: hemagglutinin (HA) of H5N1 virus strain Mixed1.1 (H5N1 avian influenza virus, strain Mixed1.1); assay: cell-based or functional assay
[15] = biological target: hemagglutinin (HA) of H5N1 virus strain VNM2-2.1 (H5N1 avian influenza virus, strain VNM2-2.1); assay: cell-based or functional assay
[16] = biological target: hemagglutinin (HA) of H5N1 virus strain GD1.1 (H5N1 avian influenza virus, strain GD1.1); assay: cell-based or functional assay
[17] = biological target: hemagglutinin (HA) of H5N1 virus strain HN3.1 (H5N1 avian influenza virus, strain HN3.1); assay: cell-based or functional assay
[18] = biological target: phage peptides (screening product screened with 8G9 from twelve-peptide library)
[19] = biological target: hemagglutinin (HA) of H5N1 virus strain A6 (H5N1 avian influenza virus, strain A6); assay: cell-based or functional assay
[20] = biological target: hemagglutinin (HA) of H5N1 virus strain B7 (H5N1 avian influenza virus, strain B7); assay: cell-based or functional assay
[21] = biological target: hemagglutinin (HA) of H5N1 virus strain B4 (H5N1 avian influenza virus, strain B4); assay: cell-based or functional assay
[22] = biological target: hemagglutinin (HA) of H5N1 virus strain D1 (H5N1 avian influenza virus, strain D1); assay: cell-based or functional assay
[23] = biological target: hemagglutinin (HA) of H5N1 virus strain F2 (H5N1 avian influenza virus, strain F2); assay: cell-based or functional assay
[24] = biological target: hemagglutinin (HA) of H5N1 virus strain A7 (H5N1 avian influenza virus, strain A7); assay: cell-based or functional assay
[25] = biological target: hemagglutinin (HA) of H5N1 virus strain B1 (H5N1 avian influenza virus, strain B1); assay: cell-based or functional assay
[26] = biological target: hemagglutinin (HA) of H5N1 virus strain D2 (H5N1 avian influenza virus, strain D2); assay: cell-based or functional assay
[27] = biological target: hemagglutinin (HA) of H5N1 virus strain A8 (H5N1 avian influenza virus, strain A8); assay: cell-based or functional assay
[28] = biological target: hemagglutinin (HA) of H5N1 virus strain B8 (H5N1 avian influenza virus, strain B8); assay: cell-based or functional assay
[29] = biological target: hemagglutinin (HA) of H5N1 virus strain C3 (H5N1 avian influenza virus, strain C3); assay: cell-based or functional assay
[30] = biological target: hemagglutinin (HA) of H5N1 virus strain E2 (H5N1 avian influenza virus, strain E2); assay: cell-based or functional assay
[31] = biological target: hemagglutinin (HA) of H5N1 virus strain C2 (H5N1 avian influenza virus, strain C2); assay: cell-based or functional assay
[32] = biological target: hemagglutinin (HA) of H5N1 virus strain B6 (H5N1 avian influenza virus, strain B6); assay: cell-based or functional assay
[33] = biological target: hemagglutinin (HA) of H5N1 virus strain B3 (H5N1 avian influenza virus, strain B3); assay: cell-based or functional assay
[34] = biological target: hemagglutinin (HA) of H5N1 virus strain F3 (H5N1 avian influenza virus, strain F3); assay: cell-based or functional assay
[35] = biological target: hemagglutinin (HA) of H5N1 virus strain E1 (H5N1 avian influenza virus, strain E1); assay: cell-based or functional assay
[36] = biological target: hemagglutinin (HA) of H5N1 virus strain A1 (H5N1 avian influenza virus, strain A1); assay: cell-based or functional assay
[37] = biological target: hemagglutinin (HA) of H5N1 virus strain D3 (H5N1 avian influenza virus, strain D3); assay: cell-based or functional assay
[38] = biological target: hemagglutinin (HA) of H5N1 virus strain F4 (H5N1 avian influenza virus, strain F4); assay: cell-based or functional assay
[39] = biological target: hemagglutinin (HA) of H5N1 virus strain A2 (H5N1 avian influenza virus, strain A2); assay: cell-based or functional assay
[40] = biological target: hemagglutinin (HA) of H5N1 virus strain G1 (H5N1 avian influenza virus, strain G1); assay: cell-based or functional assay
[41] = biological target: hemagglutinin (HA) of H5N1 virus strain A3 (H5N1 avian influenza virus, strain A3); assay: cell-based or functional assay
[42] = biological target: hemagglutinin (HA) of H5N1 virus strain H2 (H5N1 avian influenza virus, strain H2); assay: cell-based or functional assay

B1: monoclonal antibody 8G9 (antibody, V domains shown)
VH: QVQLQQPGVELVRPGASVKLSCKASGYTFTSFWMNWVKQRPDQGLEWIGRIDPYDSETHYNQKFKDKAILTVDKSSSTAYMQLSSLTSEDSAVYYCGRGIATLMVLPDYWGQGTSVTVSS
VL: DILMTQSPSSMSVSLGDTVSITCHASQDISSNMGWLQQKPGKSLKGLIYHGTNLEDGVPSRFSGSGSGPDYSLTISSLESEDFADYYCVQYIQFPWTFGGGTKLEIKR
0: Positive number/total virus number, hemagglutination inhibition assay (of 14 virus strains positive) [11]
15: Positive number/total virus number, hemagglutination inhibition assay (of 15 virus strains positive) [8]
12800 titer: Hamaglutinin inhibition titer [1] | Neutralization titer [1] | Hamaglutinin inhibition titer [2] | Neutralization titer [2] | Hamaglutinin inhibition titer [3] | Neutralization titer [3] | Hamaglutinin inhibition titer [4] | Neutralization titer [4] | Hamaglutinin inhibition titer [5] | Neutralization titer [5] | Hamaglutinin inhibition titer [6] | Neutralization titer [6] | Hamaglutinin inhibition titer [7] | Neutralization titer [7] | Hamaglutinin inhibition titer [9] | Neutralization titer [9] | Hamaglutinin inhibition titer [10] | Neutralization titer [10] | Hamaglutinin inhibition titer [12] | Neutralization titer [12] | Hamaglutinin inhibition titer [13] | Neutralization titer [13] | Hamaglutinin inhibition titer [14] | Neutralization titer [14] | Hamaglutinin inhibition titer [15] | Neutralization titer [15] | Hamaglutinin inhibition titer [16] | Neutralization titer [16] | Hamaglutinin inhibition titer [17] | Neutralization titer [17]
> 3 fold: OD value relative to that of the control antibodies [18]

B2: monoclonal antibody 13D4 (antibody, V domains shown)
VH: QVQLQQSGAELMKPGASVKISCKATGYTFSGHWIEWVKQRPGHGLEWIGEILPGSGNIHYNEKFKGKATFAADTSSNTAYMQLSSLTSEDSAVYYCARLGTTAVERDWYFDVWGQGTTVTESL
VL: DIVMTQSQKFMSASVGDRVSVTCKASQNVGTHLAWYQQKPGQSPKALIYSASYRYSGVPDRFTGSGSGTDFTLTISNVQSGDLADYFCQQYNNFPLTFGAGTKLEIKR
3: HI titer (hemagglutinin inhibition assay) (n (HI titer = 2^n)) [19] | HI titer (hemagglutinin inhibition assay) (n (HI titer = 2^n)) [31] | HI titer (hemagglutinin inhibition assay) (n (HI titer = 2^n)) [33] | HI titer (hemagglutinin inhibition assay) (n (HI titer = 2^n)) [42]
15: Positive number/total virus number, hemagglutination inhibition assay (of 15 virus strains positive) [8]
1: HI titer (hemagglutinin inhibition assay) (n (HI titer = 2^n)) [38]
6400 titer: Hamaglutinin inhibition titer [4] | Hamaglutinin inhibition titer [14] | Hamaglutinin inhibition titer [16]
> 8: HI titer (hemagglutinin inhibition assay) (n (HI titer = 2^n)) [25] | HI titer (hemagglutinin inhibition assay) (n (HI titer = 2^n)) [28] | HI titer (hemagglutinin inhibition assay) (n (HI titer = 2^n)) [32] | HI titer (hemagglutinin inhibition assay) (n (HI titer = 2^n)) [34] | HI titer (hemagglutinin inhibition assay) (n (HI titer = 2^n)) [36]
5: HI titer (hemagglutinin inhibition assay) (n (HI titer = 2^n)) [21] | HI titer (hemagglutinin inhibition assay) (n (HI titer = 2^n)) [22] | HI titer (hemagglutinin inhibition assay) (n (HI titer = 2^n)) [23] | HI titer (hemagglutinin inhibition assay) (n (HI titer = 2^n)) [26] | HI titer (hemagglutinin inhibition assay) (n (HI titer = 2^n)) [27]
4: HI titer (hemagglutinin inhibition assay) (n (HI titer = 2^n)) [24] | HI titer (hemagglutinin inhibition assay) (n (HI titer = 2^n)) [29] | HI titer (hemagglutinin inhibition assay) (n (HI titer = 2^n)) [40]
12800 titer: Hamaglutinin inhibition titer [1] | Neutralization titer [1] | Hamaglutinin inhibition titer [2] | Neutralization titer [2] | Hamaglutinin inhibition titer [3] | Neutralization titer [3] | Neutralization titer [4] | Hamaglutinin inhibition titer [5] | Neutralization titer [5] | Hamaglutinin inhibition titer [6] | Neutralization titer [6] | Hamaglutinin inhibition titer [7] | Neutralization titer [7] | Hamaglutinin inhibition titer [9] | Neutralization titer [9] | Hamaglutinin inhibition titer [10] | Neutralization titer [10] | Hamaglutinin inhibition titer [12] | Neutralization titer [12] | Hamaglutinin inhibition titer [13] | Neutralization titer [13] | Neutralization titer [14] | Hamaglutinin inhibition titer [15] | Neutralization titer [15] | Neutralization titer [16] | Hamaglutinin inhibition titer [17] | Neutralization titer [17]
7: HI titer (hemagglutinin inhibition assay) (n (HI titer = 2^n)) [20] | HI titer (hemagglutinin inhibition assay) (n (HI titer = 2^n)) [35] | HI titer (hemagglutinin inhibition assay) (n (HI titer = 2^n)) [39]
0: Positive number/total virus number, hemagglutination inhibition assay (of 14 virus strains positive) [11]
6: HI titer (hemagglutinin inhibition assay) (n (HI titer = 2^n)) [30] | HI titer (hemagglutinin inhibition assay) (n (HI titer = 2^n)) [37] | HI titer (hemagglutinin inhibition assay) (n (HI titer = 2^n)) [41]
